Test results: the supplement of paper PMC9112550, “Optimization of the antimicrobial peptide Bac7 by deep mutational scanning” (BMC Biology, 2022)

Tested on: Escherichia coli TOP10
Experiment: shrunken log2 fold change of peptide-encoding DNA abundance (4.5 h post-induction vs induction); higher = less antimicrobial activity (less host growth inhibition)
Settings: time post-induction: 4.5 h; library: site-saturation at positions 5, 18, 19, 20
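Also: peptides expressed intracellularly from a pBAD plasmid library in pooled LB shake-flask culture, induced with 0.3% L-arabinose, DNA abundance read by NGS, three biological replicates, DESeq2 with apeglm shrinkage.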

Row | Sequence | shrunken log2 fold change
1 | RRIRCRPPRLPRPRPRPRGNPRP | 0.0747
2 | RRIRVRPPRLPRPRPRPKGDPRP | 0.275
3 | RRIRCRPPRLPRPRPRPWQSPRP | -0.127
4 | RRIRPRPPRLPRPRPRPAMNPRP | 0.193
5 | RRIRLRPPRLPRPRPRPDEHPRP | -0.287
6 | RRIRYRPPRLPRPRPRPPESPRP | 0.0226
7 | RRIRPRPPRLPRPRPRPCLYPRP | -0.595
8 | RRIRSRPPRLPRPRPRPHRIPRP | -0.706
9 | RRIRDRPPRLPRPRPRPCNNPRP | -0.931
10 | RRIRVRPPRLPRPRPRPFPQPRP | -0.312
11 | RRIRLRPPRLPRPRPRPDRMPRP | -0.0414
12 | RRIRRRPPRLPRPRPRPWCFPRP | -0.0808
13 | RRIRHRPPRLPRPRPRPPQGPRP | 0.133
14 | RRIRPRPPRLPRPRPRPHSFPRP | -0.0599
15 | RRIRARPPRLPRPRPRPGRFPRP | 1.11
16 | RRIRPRPPRLPRPRPRPGNYPRP | -0.36
17 | RRIRPRPPRLPRPRPRPFVEPRP | -0.0706
18 | RRIRLRPPRLPRPRPRPPNDPRP | 0.0552
19 | RRIRLRPPRLPRPRPRPGWIPRP | 0.0964
20 | RRIRHRPPRLPRPRPRPYWGPRP | -0.0562
21 | RRIRHRPPRLPRPRPRPGFYPRP | -0.363
22 | RRIRPRPPRLPRPRPRPQYNPRP | -0.742
23 | RRIRDRPPRLPRPRPRPKWLPRP | 0.223
24 | RRIRWRPPRLPRPRPRPKLMPRP | 0.31
25 | RRIRERPPRLPRPRPRPNPGPRP | -0.55

Row | Sequence | shrunken log2 fold change
26 | RRIRNRPPRLPRPRPRPNYEPRP | -0.21
27 | RRIRKRPPRLPRPRPRPVEQPRP | 0.12
28 | RRIRARPPRLPRPRPRPKKMPRP | -0.0239
29 | RRIRFRPPRLPRPRPRPKGRPRP | -0.0884
30 | RRIRHRPPRLPRPRPRPEAPPRP | 0.641
31 | RRIRTRPPRLPRPRPRPMPFPRP | -0.00604
32 | RRIRRRPPRLPRPRPRPFANPRP | 0.00652
33 | RRIRDRPPRLPRPRPRPLNPPRP | -0.478
34 | RRIRVRPPRLPRPRPRPAWIPRP | 0.0483
35 | RRIRDRPPRLPRPRPRPEFNPRP | 0.574
36 | RRIRYRPPRLPRPRPRPQEYPRP | -0.00804
37 | RRIRSRPPRLPRPRPRPPGVPRP | 0.293
38 | RRIRIRPPRLPRPRPRPRNSPRP | 0.0503
39 | RRIRKRPPRLPRPRPRPNYVPRP | -0.087
40 | RRIRWRPPRLPRPRPRPCIRPRP | -0.147
41 | RRIRFRPPRLPRPRPRPVFWPRP | 0.423
42 | RRIRIRPPRLPRPRPRPVKIPRP | 0.0113
43 | RRIRSRPPRLPRPRPRPVDNPRP | -0.493
44 | RRIRMRPPRLPRPRPRPTDVPRP | 0.141
45 | RRIRRRPPRLPRPRPRPMWCPRP | 0.135
46 | RRIRWRPPRLPRPRPRPSRFPRP | -0.0148
47 | RRIRERPPRLPRPRPRPGSIPRP | 0.0371
48 | RRIRARPPRLPRPRPRPTIQPRP | 0.0396
49 | RRIRKRPPRLPRPRPRPYIEPRP | -0.127
50 | RRIRGRPPRLPRPRPRPQWNPRP | 0.0405

Row | Sequence | shrunken log2 fold change
51 | RRIRTRPPRLPRPRPRPNGWPRP | 0.215
52 | RRIRYRPPRLPRPRPRPFDIPRP | 0.0167
53 | RRIRQRPPRLPRPRPRPQGRPRP | -0.0215
54 | RRIRIRPPRLPRPRPRPQAGPRP | -0.16
55 | RRIRNRPPRLPRPRPRPLDLPRP | 0.00897
56 | RRIRARPPRLPRPRPRPWISPRP | -0.333
57 | RRIRKRPPRLPRPRPRPCRGPRP | -0.115
58 | RRIRTRPPRLPRPRPRPDCIPRP | -0.0428
59 | RRIRSRPPRLPRPRPRPHQKPRP | -0.189
60 | RRIRSRPPRLPRPRPRPFWRPRP | 0.0559
61 | RRIRVRPPRLPRPRPRPTMVPRP | 0.0376
62 | RRIRVRPPRLPRPRPRPRSQPRP | 0.25
63 | RRIRQRPPRLPRPRPRPFTHPRP | -0.0618
64 | RRIRDRPPRLPRPRPRPKRYPRP | -0.236
65 | RRIRQRPPRLPRPRPRPVMKPRP | -0.212
66 | RRIRQRPPRLPRPRPRPEWAPRP | 0.0739
67 | RRIRDRPPRLPRPRPRPVDNPRP | 0.0262
68 | RRIRHRPPRLPRPRPRPTMGPRP | 0.144
69 | RRIRPRPPRLPRPRPRPIAPPRP | 0.265
70 | RRIRTRPPRLPRPRPRPVVTPRP | 0.0483
71 | RRIRKRPPRLPRPRPRPNKQPRP | -0.0316
72 | RRIRHRPPRLPRPRPRPMGTPRP | -0.0597
73 | RRIRTRPPRLPRPRPRPNCYPRP | -0.836
74 | RRIRYRPPRLPRPRPRPFFLPRP | -0.763
75 | RRIRKRPPRLPRPRPRPRFHPRP | 0.077
